Kd, koff and kon data for one molecule are collected here from KR20220072468A (dated 2022).

This test has as its target T1, 인간 TIGIT-His (human, UniProt Q495A1 22-141).
T1 construct: extracellular domain; also called TIGIT-6x His; TIGIT 항원
T1 sequence: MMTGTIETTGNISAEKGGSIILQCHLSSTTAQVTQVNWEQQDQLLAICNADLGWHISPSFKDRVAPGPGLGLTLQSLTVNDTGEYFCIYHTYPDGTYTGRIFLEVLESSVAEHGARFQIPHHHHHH
The test is described as follows: BLI (Octet QK), antibody on AHC biosensor, human TIGIT-His 15 nM ~ 1.88 nM, 1:1 global fit. On the technique in general: In BLI a coated tip is dipped into the sample, and binding shifts an interference pattern.

B1: SA2209 (antibody, V domains shown)
VH: QVQLQESGPGLVKPSGTLSLTCAVSGVSIRQGHWWSWVRQPPGKGLEWIGEIYQTGRTNYNPSLKSRVTISVGKSRNHISLKLSSVTAADTAVYYCTTGSGWYPIDYWGQGTLVTVSS
VL: SYELTQDPAVSVALGQTVRITCQGDSLRGFYASWYQQKPGQAPLLVLYGVKDRPSGIPDRFSGSRSGTTASLTITGAQAEDEADYYCNSRDSNGAMMFGGGTKLTVL
notes: also called 항-TIGIT 항체; anti-TIGIT antibody
As to B1, the Kd turned out to be 3.43 nM, the koff worked out at 0.00136 s⁻¹ and the kon is 397000 M⁻¹ s⁻¹.

As usually defined, the Kd is the constant that tells how readily two partners part at equilibrium. One may read the koff as the rate constant with which the complex falls apart. Low readings indicate a long-lived complex, high ones a short-lived complex. One may read the kon as a measure of how fast the partners come together. A low value points to slow association.
